Test results taken from patent US20100159475.

What was measured:
[1] = system: T1, Fluoresceinyl-DLDVPIPGRFDRRVpSVAAE (phosphorylated, fluorescein-tagged RII peptide)
T1 sequence: DLDVPIPGRFDRRVSVAAE

Recombinant calcineurin
dephosphorylation by 0.2 ng calcineurin (fluorimetric calcineurin assay) (autoinhibitory peptide): Dephosphorylation by 0.2 ng calcineurin was significantly reduced (ANOVA) by each of these conditions
amount of dephosphorylated peptide in the unbound fraction after titanium oxide (mass spectrometry) [1]: 30-fold increase in the amount of dephosphorylated peptide in the unbound fraction with the addition of recombinant calcineurin
dephosphorylation of the peptide (fluorimetric calcineurin assay) [1]: Calcineurin in normal buffer resulted in dephosphorylation of the peptide in a dose-dependent manner
relative amount of dephosphorylated to phosphorylated peptide (mass spectrometry) [1]: recombinant calcineurin stimulated a dose-responsive increase in the relative amount of dephosphorylated to phosphorylated peptide
